Assay results reported in patent publication US8287851B2, “Use of interleukin 17E for the treatment of cancer” (Lorus Therapeutics Inc., priority 2005, dated 2012).

Molecular target: T1, IL17BR interaction with protein tyrosine kinase Lyn (Mus musculus, UniProt Q9JIP3)
T1 construct: using the B cell lymphoma cell line WEHI-231; endogenous in cells; host or cells: WEHI-231 B cell lymphoma cells
T1 sequence (Q9JIP3 18-499): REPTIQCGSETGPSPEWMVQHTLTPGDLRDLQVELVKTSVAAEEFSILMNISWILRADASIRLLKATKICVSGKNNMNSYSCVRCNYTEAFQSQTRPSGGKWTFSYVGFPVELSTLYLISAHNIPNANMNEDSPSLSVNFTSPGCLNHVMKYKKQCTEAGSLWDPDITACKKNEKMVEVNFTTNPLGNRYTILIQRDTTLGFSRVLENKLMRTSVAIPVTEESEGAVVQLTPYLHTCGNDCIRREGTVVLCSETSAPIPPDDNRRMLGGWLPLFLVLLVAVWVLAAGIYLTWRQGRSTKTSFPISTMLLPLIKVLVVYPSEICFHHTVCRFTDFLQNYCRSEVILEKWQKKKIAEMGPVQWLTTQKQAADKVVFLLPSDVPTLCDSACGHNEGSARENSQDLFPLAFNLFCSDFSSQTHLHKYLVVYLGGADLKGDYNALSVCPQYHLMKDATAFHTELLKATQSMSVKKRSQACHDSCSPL
Experiment: Coimmunoprecipitation of Lyn and IL17BR in WEHI-231 cells
Assay type: cell-based
Settings: 0.1 μg per 5×10^6 WEHI-231 cells, 5 minutes at 37° C.
Experimental: The effect of interleukin 17E on the induction of interaction of its receptor IL17BR with the protein tyrosine kinase Lyn was examined using the B cell lymphoma cell line WEHI-231.
A total of 5×10^6 cells per sample were incubated with 0.1 μg of human IL17E (hIL-17E) for 5 minutes at 37° C. Cells were lysed in lysis buffer for 30 minutes on ice, followed by centrifugation for 10 minutes. The tyrosine kinase Lyn was immunoprecipitated from 350 μg of protein lysate using rabbit anti-Lyn antibodies coupled to Protein A Sepharose beads. Immunoprecipitated samples containing approximately 25 μg of protein were separated by SDS-PAGE, followed by transfer to membranes for Western blotting.
For detection of phosphorylated Lyn, blots were incubated with anti-phosphotyrosine antibodies, followed by horseradish peroxidase (HRP)-conjugated anti-mouse antibodies.
For detection of IL17BR, blots were incubated with biotin-conjugated-rat anti-IL17BR antibodies, followed by HRP-conjugated streptavidin.
To assess equivalent loading of Lyn, blots were incubated with rabbit anti-Lyn antibodies, followed by HRP-conjugated-anti-rabbit antibodies.
All blots were exposed to autoradiography film and developed to detect chemiluminescence.

B1: human IL-17E: Recombinant human IL-17E from PeproTech; two 145 amino acid chains, predominant form starting at Tyr 33 of GenBank AAG40848 (protein, listed as Homo sapiens)
chain: YSHWPSCCPSKGQDTSEELLRWSTVPVPPLEPARPNRHPESCRASEDGPLNSRAISPWRYELDRDLNRLPQDLYHARCLCPHCVSLQTGSHMDPRGNSELLYHNQTVFYRRPCHGEKGTHKGYCLERRLYRVSLACVCVRPRVMG
- coimmunoprecipitation of Lyn and IL17BR: coimmunoprecipitated
